Data published in the supplement of paper PMC10567573.

B1: TRIM39 (parent)
chain: YPCVLATEGFTSGRHYWEVEVGDK

Variants of: B1
Assay: protein stability index of a GFP-peptide fusion (GPS, HEK-293T) (PSI 1-6); higher = more stable
Conditions: c terminus: a fixed tail appended
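Further: lentivirally expressed fusions sorted by FACS into six bins by GFP to DsRed ratio, PSI derived from sequencing read proportions per bin multiplied by bin number.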

Compared with YPAVLATEGFTSGRHYWEVEVGDK [C3A], YPDVLATEGFTSGRHYWEVEVGDK [C3D] is lower in protein stability index: 2.05 for the first, 1.9 for the second.

Going from YPEVLATEGFTSGRHYWEVEVGDK [C3E] to YPFVLATEGFTSGRHYWEVEVGDK [C3F], the protein stability index falls from 3.41 to 1.86.

YPGVLATEGFTSGRHYWEVEVGDK [C3G] and YPHVLATEGFTSGRHYWEVEVGDK [C3H] are the same in protein stability index: 1.98 for the first, 1.98 for the second.

Going from YPIVLATEGFTSGRHYWEVEVGDK [C3I] to YPKVLATEGFTSGRHYWEVEVGDK [C3K], the protein stability index falls from 2.41 to 1.48.

First: YPLVLATEGFTSGRHYWEVEVGDK [C3L]
Second: YPMVLATEGFTSGRHYWEVEVGDK [C3M]
The protein stability index of the first is higher: 2.09 for the first, 1.91 for the second.

Going from YPNVLATEGFTSGRHYWEVEVGDK [C3N] to YPQVLATEGFTSGRHYWEVEVGDK [C3Q], the protein stability index rises from 1.7 to 1.9.

Going from YPRVLATEGFTSGRHYWEVEVGDK [C3R] to YPSVLATEGFTSGRHYWEVEVGDK [C3S], the protein stability index falls from 2.99 to 2.

Compared with YPTVLATEGFTSGRHYWEVEVGDK [C3T], YPVVLATEGFTSGRHYWEVEVGDK [C3V] is higher in protein stability index: 1.81 for the first, 2.01 for the second.

First: YPWVLATEGFTSGRHYWEVEVGDK [C3W]
Second: YPYVLATEGFTSGRHYWEVEVGDK [C3Y]
The protein stability index of the first is lower: 1.97 for the first, 1.98 for the second.

Going from YPCALATEGFTSGRHYWEVEVGDK [V4A] to YPCCLATEGFTSGRHYWEVEVGDK [V4C], the protein stability index rises from 1.73 to 2.03.

Compared with YPCDLATEGFTSGRHYWEVEVGDK [V4D], YPCELATEGFTSGRHYWEVEVGDK [V4E] is higher in protein stability index: 2.54 for the first, 2.88 for the second.

Compared with YPCFLATEGFTSGRHYWEVEVGDK [V4F], YPCGLATEGFTSGRHYWEVEVGDK [V4G] is higher in protein stability index: 2.18 for the first, 2.69 for the second.

Compared with YPCHLATEGFTSGRHYWEVEVGDK [V4H], YPCILATEGFTSGRHYWEVEVGDK [V4I] is higher in protein stability index: 1.52 for the first, 1.85 for the second.

First: YPCKLATEGFTSGRHYWEVEVGDK [V4K]
Second: YPCLLATEGFTSGRHYWEVEVGDK [V4L]
The protein stability index of the first is lower: 1.79 for the first, 2.13 for the second.

Going from YPCMLATEGFTSGRHYWEVEVGDK [V4M] to YPCNLATEGFTSGRHYWEVEVGDK [V4N], the protein stability index falls from 2.06 to 1.85.

First: YPCPLATEGFTSGRHYWEVEVGDK [V4P]
Second: YPCQLATEGFTSGRHYWEVEVGDK [V4Q]
The protein stability index of the first is higher: 2.01 for the first, 1.46 for the second.

Compared with YPCRLATEGFTSGRHYWEVEVGDK [V4R], YPCSLATEGFTSGRHYWEVEVGDK [V4S] is lower in protein stability index: 1.78 for the first, 1.61 for the second.

First: YPCTLATEGFTSGRHYWEVEVGDK [V4T]
Second: YPCWLATEGFTSGRHYWEVEVGDK [V4W]
The protein stability index of the first is lower: 1.68 for the first, 1.74 for the second.

First: YPCYLATEGFTSGRHYWEVEVGDK [V4Y]
Second: YPCVAATEGFTSGRHYWEVEVGDK [L5A]
The protein stability index of the first is higher: 2.41 for the first, 1.87 for the second.

First: YPCVCATEGFTSGRHYWEVEVGDK [L5C]
Second: YPCVDATEGFTSGRHYWEVEVGDK [L5D]
The protein stability index of the first is lower: 1.22 for the first, 2.17 for the second.

Compared with YPCVEATEGFTSGRHYWEVEVGDK [L5E], YPCVFATEGFTSGRHYWEVEVGDK [L5F] is lower in protein stability index: 2.34 for the first, 1.57 for the second.

Compared with YPCVGATEGFTSGRHYWEVEVGDK [L5G], YPCVHATEGFTSGRHYWEVEVGDK [L5H] is lower in protein stability index: 1.87 for the first, 1.36 for the second.

Going from YPCVIATEGFTSGRHYWEVEVGDK [L5I] to YPCVKATEGFTSGRHYWEVEVGDK [L5K], the protein stability index rises from 1.69 to 2.21.

Compared with YPCVMATEGFTSGRHYWEVEVGDK [L5M], YPCVNATEGFTSGRHYWEVEVGDK [L5N] is higher in protein stability index: 1.46 for the first, 2.58 for the second.

First: YPCVPATEGFTSGRHYWEVEVGDK [L5P]
Second: YPCVQATEGFTSGRHYWEVEVGDK [L5Q]
The protein stability index of the first is lower: 1.56 for the first, 2.31 for the second.

Going from YPCVRATEGFTSGRHYWEVEVGDK [L5R] to YPCVSATEGFTSGRHYWEVEVGDK [L5S], the protein stability index rises from 1.54 to 2.26.

Compared with YPCVTATEGFTSGRHYWEVEVGDK [L5T], YPCVVATEGFTSGRHYWEVEVGDK [L5V] is lower in protein stability index: 2.16 for the first, 1.74 for the second.

Going from YPCVWATEGFTSGRHYWEVEVGDK [L5W] to YPCVYATEGFTSGRHYWEVEVGDK [L5Y], the protein stability index rises from 2.18 to 2.3.

First: YPCVLCTEGFTSGRHYWEVEVGDK [A6C]
Second: YPCVLDTEGFTSGRHYWEVEVGDK [A6D]
The protein stability index of the first is lower: 1.44 for the first, 2.12 for the second.

Going from YPCVLETEGFTSGRHYWEVEVGDK [A6E] to YPCVLFTEGFTSGRHYWEVEVGDK [A6F], the protein stability index falls from 1.71 to 1.27.

Going from YPCVLGTEGFTSGRHYWEVEVGDK [A6G] to YPCVLHTEGFTSGRHYWEVEVGDK [A6H], the protein stability index falls from 2.38 to 1.99.

Compared with YPCVLITEGFTSGRHYWEVEVGDK [A6I], YPCVLKTEGFTSGRHYWEVEVGDK [A6K] is lower in protein stability index: 2.09 for the first, 1.59 for the second.

First: YPCVLLTEGFTSGRHYWEVEVGDK [A6L]
Second: YPCVLMTEGFTSGRHYWEVEVGDK [A6M]
The protein stability index of the first is higher: 1.45 for the first, 1.4 for the second.

Compared with YPCVLNTEGFTSGRHYWEVEVGDK [A6N], YPCVLPTEGFTSGRHYWEVEVGDK [A6P] is lower in protein stability index: 2.47 for the first, 1.75 for the second.

Compared with YPCVLQTEGFTSGRHYWEVEVGDK [A6Q], YPCVLRTEGFTSGRHYWEVEVGDK [A6R] is lower in protein stability index: 2.47 for the first, 1.36 for the second.

First: YPCVLSTEGFTSGRHYWEVEVGDK [A6S]
Second: YPCVLTTEGFTSGRHYWEVEVGDK [A6T]
The protein stability index of the first is lower: 1.44 for the first, 3 for the second.

First: YPCVLVTEGFTSGRHYWEVEVGDK [A6V]
Second: YPCVLWTEGFTSGRHYWEVEVGDK [A6W]
The protein stability index of the first is lower: 1.89 for the first, 2.16 for the second.

Going from YPCVLYTEGFTSGRHYWEVEVGDK [A6Y] to YPCVLAAEGFTSGRHYWEVEVGDK [T7A], the protein stability index rises from 1.43 to 2.27.

Going from YPCVLACEGFTSGRHYWEVEVGDK [T7C] to YPCVLADEGFTSGRHYWEVEVGDK [T7D], the protein stability index falls from 1.84 to 1.74.

Compared with YPCVLAEEGFTSGRHYWEVEVGDK [T7E], YPCVLAFEGFTSGRHYWEVEVGDK [T7F] is higher in protein stability index: 2.16 for the first, 2.32 for the second.

Compared with YPCVLAGEGFTSGRHYWEVEVGDK [T7G], YPCVLAHEGFTSGRHYWEVEVGDK [T7H] is lower in protein stability index: 1.77 for the first, 1.59 for the second.

Going from YPCVLAIEGFTSGRHYWEVEVGDK [T7I] to YPCVLAKEGFTSGRHYWEVEVGDK [T7K], the protein stability index rises from 1.63 to 2.46.

Going from YPCVLALEGFTSGRHYWEVEVGDK [T7L] to YPCVLANEGFTSGRHYWEVEVGDK [T7N], the protein stability index rises from 1.98 to 2.45.

First: YPCVLAPEGFTSGRHYWEVEVGDK [T7P]
Second: YPCVLAQEGFTSGRHYWEVEVGDK [T7Q]
The protein stability index of the first is higher: 1.75 for the first, 1.56 for the second.

Going from YPCVLASEGFTSGRHYWEVEVGDK [T7S] to YPCVLAVEGFTSGRHYWEVEVGDK [T7V], the protein stability index rises from 1.57 to 1.79.

Compared with YPCVLAYEGFTSGRHYWEVEVGDK [T7Y], YPCVLATAGFTSGRHYWEVEVGDK [E8A] is higher in protein stability index: 1.09 for the first, 1.33 for the second.

Compared with YPCVLATDGFTSGRHYWEVEVGDK [E8D], YPCVLATFGFTSGRHYWEVEVGDK [E8F] is higher in protein stability index: 1.93 for the first, 2.06 for the second.
